Assay results taken from US20250064979A1.

Biological target: Gag-P3-pol (P3 coiled-coil peptide fused to MMLV Gag-pol) (Moloney murine leukemia virus) (UniProt P03332)
Assay: cell-based or functional assay

Gag-PE fusion with P4 peptide fused to its C-terminus (construct 1 of FIG. 44A) (from UniProt P03332 1-538)
editing efficiency of PE VLPs: 2 fold
